In assay [1] the target is T1, Myc-GFP-Ana2 (WT) co-expressed with stabilized DmPLK4^SBM-mCherry (D. melanogaster, UniProt Q9XZ31 1-420, phosphorylated in cells by co-expressed DmPLK4^SBM-mCherry; phosphoserine at 38 (a DmPLK4 site by the cited work)).
T1 construct: Ana2, D. melanogaster; it rests on the S38A mutant; also called WT Ana2; phosphorylated Ana2; source: Drosophila S2 cells, transfected together with DmPLK4^SBM-mCherry, in lysate; not shown: Myc, N-terminal, kept; GFP, N-terminal, kept
T1 sequence (looked up): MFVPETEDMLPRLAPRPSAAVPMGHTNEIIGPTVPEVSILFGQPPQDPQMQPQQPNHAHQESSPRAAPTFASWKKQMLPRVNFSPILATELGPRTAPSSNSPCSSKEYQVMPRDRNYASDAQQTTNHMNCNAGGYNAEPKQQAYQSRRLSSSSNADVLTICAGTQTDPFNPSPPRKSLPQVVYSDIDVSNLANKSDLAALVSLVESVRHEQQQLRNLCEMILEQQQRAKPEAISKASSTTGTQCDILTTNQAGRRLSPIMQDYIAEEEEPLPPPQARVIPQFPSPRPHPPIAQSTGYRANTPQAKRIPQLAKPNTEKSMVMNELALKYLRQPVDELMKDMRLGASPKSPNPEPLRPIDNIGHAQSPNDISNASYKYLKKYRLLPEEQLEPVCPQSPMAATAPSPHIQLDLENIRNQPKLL
As to the kind of experiment: co-IP; Drosophila S2 cells transfected with Myc-GFP-Ana2 and Flag-DmSas4 in the presence or absence of DmPLK4^SBM-mCherry; harvested 48 hr later; co-immunoprecipitation and immunoblot. Conditions: partners not purified. (Immunoblotting shows a protein as a band on a membrane.)

In assay [2] the target is T2, Myc-GFP-STIL (wild type) phosphorylated in cells by co-expressed kinase active PLK4^Δ24-mCherry (human, UniProt Q15468 1-1287, phosphoserine at 428 and at 1116 (phosphorylated in cells by co-expressed kinase active PLK4^Δ24-mCherry; shown with pS428 and pS1116 antibodies)).
T2 construct: STIL, human; Further PLK4 sites may be phosphorylated (84 sites were found in vitro); also called WT STIL; phosphorylated STIL; source: HEK293FT, transfected together with kinase active PLK4^Δ24-mCherry, in lysate; not shown: Myc, N-terminal, kept; GFP, N-terminal, kept
T2 sequence (looked up): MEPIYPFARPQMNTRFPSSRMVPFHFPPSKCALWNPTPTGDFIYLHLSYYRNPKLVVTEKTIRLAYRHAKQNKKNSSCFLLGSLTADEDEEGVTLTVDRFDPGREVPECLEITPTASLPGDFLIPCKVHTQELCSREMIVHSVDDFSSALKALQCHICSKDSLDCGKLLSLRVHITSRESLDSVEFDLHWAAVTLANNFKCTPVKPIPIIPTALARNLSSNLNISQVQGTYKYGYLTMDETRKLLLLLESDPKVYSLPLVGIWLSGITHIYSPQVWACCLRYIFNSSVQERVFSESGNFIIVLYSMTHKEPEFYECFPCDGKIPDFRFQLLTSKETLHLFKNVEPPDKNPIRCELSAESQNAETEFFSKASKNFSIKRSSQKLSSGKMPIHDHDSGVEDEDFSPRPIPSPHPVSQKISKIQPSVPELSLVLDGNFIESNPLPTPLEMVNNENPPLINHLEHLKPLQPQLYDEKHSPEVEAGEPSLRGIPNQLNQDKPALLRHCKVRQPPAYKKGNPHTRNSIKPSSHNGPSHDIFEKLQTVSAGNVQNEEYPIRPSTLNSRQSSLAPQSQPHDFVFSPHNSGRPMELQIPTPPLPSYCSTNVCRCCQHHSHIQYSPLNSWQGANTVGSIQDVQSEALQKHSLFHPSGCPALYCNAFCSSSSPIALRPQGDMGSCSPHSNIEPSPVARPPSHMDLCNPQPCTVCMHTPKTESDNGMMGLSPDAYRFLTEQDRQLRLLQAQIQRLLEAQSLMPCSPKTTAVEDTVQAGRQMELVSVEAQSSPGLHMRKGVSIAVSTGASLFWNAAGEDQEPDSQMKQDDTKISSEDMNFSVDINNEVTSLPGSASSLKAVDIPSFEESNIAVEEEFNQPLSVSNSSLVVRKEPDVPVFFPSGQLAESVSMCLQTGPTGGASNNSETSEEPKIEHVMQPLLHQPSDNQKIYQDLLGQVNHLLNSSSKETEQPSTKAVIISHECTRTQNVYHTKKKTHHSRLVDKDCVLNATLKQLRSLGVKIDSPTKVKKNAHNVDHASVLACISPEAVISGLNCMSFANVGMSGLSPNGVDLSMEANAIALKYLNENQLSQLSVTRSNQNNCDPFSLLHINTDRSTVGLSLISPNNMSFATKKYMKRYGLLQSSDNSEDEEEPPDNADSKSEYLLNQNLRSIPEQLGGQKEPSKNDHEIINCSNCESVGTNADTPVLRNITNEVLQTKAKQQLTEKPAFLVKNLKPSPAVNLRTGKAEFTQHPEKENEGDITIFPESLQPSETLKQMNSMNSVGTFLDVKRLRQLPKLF
The experiment in a line: co-IP; HEK293FT cells co-transfected, with kinase active or kinase dead PLK4^Δ24-mCherry where stated; lysis buffer 10 mM Tris pH 7.5, 0.1% Triton X-100, 250 mM NaCl, 1 mM EDTA, phosphatase inhibitors; Myc-GFP-STIL captured on beads coupled to GFP-binding protein; immunoblot. Conditions: partners not purified.

The values below come from paper PMC6570480, “PLK4 promotes centriole duplication by phosphorylating STIL to link the procentriole cartwheel to the microtubule wall” (eLife, 2019).

B1: Flag-DmSas4 (natural protein, D. melanogaster, UniProt Q9VI72 1-901, looked up)
chain: MQEAGESPVGMPLSQEAIAQRLAALSRWQDEQKRLLQERQSNHRVLLGLEQRNMYKMLGLLHQETESHENSVLEEWDEEHSIQMPRLAADPDEHEPEISMADPQPAKPKRPFLRRGEGLKQRFKINPDQLRLENLPRYKFANAHPQFRTPQMKKGILKKQVKSPPNPAPPPAPKPSAQLDDLNEQRFQQMLIGKNACSSTPDLKSSYASSTTASSTSPRVRFVEQKSRAGQTTHADDEASSEASPMTGVCWAKVLDTQSIKPAQIQRRSAQIRVEDDSNVSIFELLEQKATEGNIDMNSSCIRTFMARKDQRRRVADDSDHIVVTQQVRQMRLQPQVDQMLVQELQEGDEEDTEPSSDQTLTMTPIQVGNTKVRVRFSDSNDTHEYSDATSLNDGSNIQLFEQFKSALFQALEQKKKSSPSKESDEPITKDLQEKANLVRTRLEELETEIATFKEQNAQLLRLRQQHELEKAKCTQDHMEAMERVHDEKIQAEIYLHDERMKIEEERRKFEQQMRLQKSNANSKEKKEIAALKQEVEGLQLQLKQKEQAHVSAQARLRAQLRASEKEQRNYRDEIELLRKENKRLEQELVKIGRENNSKMLQEINRNIARLAPKVLPSATMSDILDENGRRTQSLDGTAGKPAKQREAQNRRQSSGSAQVRSRSRSLSRNKKTPYALDESYASSSSVESEEVQPPVTAPKAATPPPAANSSSDFKREITNADGSKDIWYPNGNLKKISADGMNLRMLYFNKDIKETNIREGTVKYYYAETNTWHTSYLDGLEILEFPNGQTEHRRKDGTVEIHFPNNSIKIVDPSDTEKLEEWRYADGTHLVQLRNGDKILNLPNGQKEIHTKLNKRREYPDGTVKLVYPDGSQETRYSNGRVRLKDKDGKLIMDTDYAKY
notes: Sas-4 (DmSas4), D. melanogaster; also called CPAP orthologue DmSas4; source: Drosophila S2 cells, transfected, in lysate; not shown: FLAG, N-terminal, kept
As to B1, in assay [1], the “fold increase in the amount of DmSas4 bound, with against without DmPLK4^SBM” value was above 6 fold.

B2: FLAG-CPAP (natural protein, human, UniProt Q9HC77 1-1338, looked up)
chain: MFLMPTSSELNSGQNFLTQWMTNPSRAGVILNRGFPILEADKEKRAAVDISTSFPIKGTHFSDSFSFINEEDSLLEEQKLESNNPYKPQSDKSETHTAFPCIKKGPQVAACHSAPGHQEENKNDFIPDLASEFKEGAYKDPLFKKLEQLKEVQQKKQEQLKRQQLEQLQRLMEEQEKLLTMVSGQCTLPGLSLLPDDQSQKHRSPGNTTTGERATCCFPSYVYPDPTQEETYPSNILSHEQSNFCRTAHGDFVLTSKRASPNLFSEAQYQEAPVEKNNLKEENRNHPTGESILCWEKVTEQIQEANDKNLQKHDDSSEVANIEERPIKAAIGERKQTFEDYLEEQIQLEEQELKQKQLKEAEGPLPIKAKPKQPFLKRGEGLARFTNAKSKFQKGKESKLVTNQSTSEDQPLFKMDRQQLQRKTALKNKELCADNPILKKDSKARTKSGSVTLSQKPKMLKCSNRKSLSPSGLKIQTGKKCDGQFRDQIKFENKVTSNNKENVTECPKPCDTGCTGWNKTQGKDRLPLSTGPASRLAAKSPIRETMKESESSLDVSLQKKLETWEREKEKENLELDEFLFLEQAADEISFSSNSSFVLKILERDQQICKGHRMSSTPVKAVPQKTNPADPISHCNRSEDLDHTAREKESECEVAPKQLHSLSSADELREQPCKIRKAVQKSTSENQTEWNARDDEGVPNSDSSTDSEEQLDVTIKPSTEDRERGISSREDSPQVCDDKGPFKDTRTQEDKRRDVDLDLSDKDYSSDESIMESIKHKVSEPSRSSSLSLSKMDFDDERTWTDLEENLCNHDVVLGNESTYGTPQTCYPNNEIGILDKTIKRKIAPVKRGEDLSKSRRSRSPPTSELMMKFFPSLKPKPKSDSHLGNELKLNISQDQPPGDNARSQVLREKIIELETEIEKFKAENASLAKLRIERESALEKLRKEIADFEQQKAKELARIEEFKKEEMRKLQKERKVFEKYTTAARTFPDKKEREEIQTLKQQIADLREDLKRKETKWSSTHSRLRSQIQMLVRENTDLREEIKVMERFRLDAWKRAEAIESSLEVEKKDKLANTSVRFQNSQISSGTQVEKYKKNYLPMQGNPPRRSKSAPPRDLGNLDKGQAASPREPLEPLNFPDPEYKEEEEDQDIQGEISHPDGKVEKVYKNGCRVILFPNGTRKEVSADGKTITVTFFNGDVKQVMPDQRVIYYYAAAQTTHTTYPEGLEVLHFSSGQIEKHYPDGRKEITFPDQTVKNLFPDGQEESIFPDGTIVRVQRDGNKLIEFNNGQRELHTAQFKRREYPDGTVKTVYANGHQETKYRSGRIRVKDKEGNVLMDTEL
notes: CPAP (CENPJ), human; also called CENPJ; source: HEK293FT, transfected, in lysate; not shown: FLAG, N-terminal, kept
As for B2, the “fold increase in the amount of CPAP bound, kinase active against kinase inactive PLK4” value in assay [2] is above 7 fold.
